Assay results taken from patent US8652790B2, “Conformational entropy in molecular recognition” (The Trustees of the University of Pennsylvania, priority 2007, dated 2014).
Like-named read-outs stand apart in the source and are kept apart here.

Experiments:
[1] = target: T1, calcium-saturated calmodulin (CaM) (Homo sapiens, UniProt P0DP23); conditions: cited from earlier work; for −TΔSbind: Binding entropy at 308 K (Table 3), values cited per Table 2 footnotes; for −TΔSbinding^total: ITC, 308 K, from Marlow & Wand or Frederick et al.
T1 construct: made in house

[2] = target: T1, calcium-saturated calmodulin (CaM); experiment: Isothermal titration calorimetry of target domain peptides binding to calcium-saturated calmodulin; conditions: for −TΔSbind: Binding entropy at 308 K (Table 3); for −TΔSbinding^total: ITC, 308 K, pH 6.5, 100 mM KCl, 6 mM CaCl2, standard errors
From the text: NMR methods are herein used to determine the dynamic response of human CaM (GenBank AAD45181) to the binding of six peptides representing the calmodulin-binding domains of the smooth muscle myosin light chain kinase (smMLCK; AAA69964) (Lukas, T. J. et al. Calmodulin binding domains: characterization of a phosphorylation and calmodulin binding site from myosin light chain kinase. Biochemistry 25, 1458-1464 (1986)), the neuronal and endothelial nitric oxide synthases (nNOS and eNOS; AAB60654 and AAH63294, respectively) (Zhang, M. & Vogel, H. J. Characterization of the calmodulin-binding domain of rat cerebellar nitric oxide synthase. J. Biol. Chem. 269, 981-985 (1994)), the calmodulin kinase kinase (CaMKKα; EDM05132) (Tokumitsu, H. et al. Calcium/calmodulin-dependent protein kinase kinase: identification of regulatory domains. Biochemistry 36, 12823-12827 (1997)), the calmodulin kinase I (CaMKI; EAW63990) Goldberg, J., Nairn, A. C. & Kuriyan, J. Structural basis for the autoinhibition of calcium/calmodulin-dependent protein kinase I. Cell 84, 875-887 (1996)) and the phosphodiesterase (PDE; AAD40738 (SEQ ID NO: 8)) Goldberg, J., Nairn, A. C. & Kuriyan, J. Structural basis for the autoinhibition of calcium/calmodulin-dependent protein kinase I. Cell 84, 875-887 (1996)).
Four of the peptides have been found previously by isothermal titration calorimetry to have roughly the same affinity for calmodulin but with widely different thermodynamic parameters defining the free energy of association. Wintrode, P. L. & Privalov, P. L. Energetics of target peptide recognition by calmodulin: a calorimetric study. […] J. Biol. Chem. 276, 14083-14091 (2001). The present study repeats isothermal titration calorimetry measurements at a temperature (35° C.) that is more optimal for solution NMR spectroscopy, and characterizes the thermodynamics of binding of two additional domains (FIG. 1). Shown in FIG. 1 are the Gibbs free energy (ΔG), enthalpy (ΔH) and entropy (−TΔS) for the formation of the six calcium-saturated CaM-peptide complexes at 35° C., as determined by isothermal titration calorimetry.
Calmodulin and synthetic peptides and complexes were prepared as described previously (Kranz, J. K. et al. A direct test of the reductionist approach to structural studies of calmodulin activity: relevance of peptide models of target proteins. J. Biol. Chem. 277, 16351-16354 (2002)) in 20 mM imidazole (pH 6.5), 100 mM KCl, 6 mM CaCl2 and 0.02% (w/v) NaN3. NMR samples were slightly (˜10%) over-titrated with peptide to ensure full complex formation. […] Data were obtained with a VP-isothermal titration calorimeter (Microcal) and analysed with the Origin (v.5) software.

[3] = target: T1, calcium-saturated calmodulin (CaM); experiment: Deuterium NMR relaxation of methyl-bearing side chains of target domains bound to CaM; conditions: residue L20 of the bound target domain
From the text: Using deuterium NMR relaxation methods, fast motion of the methyl-bearing side-chains of the target domains in the six CaM complexes were examined. Muhandiram, D. R. et al., Measurement of H-2 T-1 and T-1p relaxation-times in uniformly C-13-Labeled and fractionally H-2-labeled proteins in solution. J. Am. Chem. Soc. 117, 11536-11544 (1995).
All bound target domain methyl resonances are well resolved in ^13C-single quantum heteronuclear correlation (^13C-HSQC) NMR spectra and deuterium relaxation parameters could be measured with high precision. The 76 methyl order parameters from 52 residues of the target domains in the six complexes are heterogeneously distributed with O^2axis values ranging from 0.13 to 0.95 (FIG. 5). […]
O^2axis parameters were determined from T1 and T1p deuterium relaxation (Muhandiram, D. R. et al. Measurement of H-2 T-1 and T-1p relaxation-times in uniformly C-13-Labeled and fractionally H-2-labeled proteins in solution. J. Am. Chem. Soc. 117, 11536-11544 (1995)) measured at two magnetic fields. Rotational correlation times and O^2NH were determined from ^15N relaxation (Farrow, N. A. et al. Backbone dynamics of a free and a phosphopeptide-complexed Src homology-2 domain studied by ^15N NMR relaxation. Biochemistry 33, 5984-6003 (1994)) obtained at two magnetic fields. O^2CαCO parameters were determined by transverse cross-correlated relaxation. […]

| O^2axis [3] | Substance | −TΔSbind [1] | −TΔSbinding^total [1] | −TΔSbind [2] | −TΔSbinding^total [2] |
| --- | --- | --- | --- | --- | --- |
|  | (COOH-FPNGFSRKRLMSKVLIVTTWSPLL [CaMKKα(p)] | +90.0 ± 1.0 kJ/mol | +90.0 ± 1.0 kJ/mol |  |  |
|  | RKKTFKEVANAVKISASLMG [eNOS(p)] |  |  | +25.7 ± 0.8 kJ/mol | +25.7 ± 0.8 kJ/mol |
| 0.165 | QTEKMWQRLKGILRSLVKQ [PDE(p)] |  |  | +33.9 ± 0.7 kJ/mol | +33.9 ± 0.7 kJ/mol |
|  | AKSKWKQAFNATAVVRHMRKLQ (listed as Homo sapiens) [CaMKI(p)] | +69.6 ± 0.9 kJ/mol | +69.6 ± 0.9 kJ/mol |  |  |
